According to patent US20220204602A1 (published 2022):
Where “and” joins values, the source holds several entries; their conditions need not be identical. Identical values can stand only once.

T1: Cyno FcRn (Cynomolgus, UniProt Q8SPV9 24-297; Q8SPW0 21-119)
T1 chain 1: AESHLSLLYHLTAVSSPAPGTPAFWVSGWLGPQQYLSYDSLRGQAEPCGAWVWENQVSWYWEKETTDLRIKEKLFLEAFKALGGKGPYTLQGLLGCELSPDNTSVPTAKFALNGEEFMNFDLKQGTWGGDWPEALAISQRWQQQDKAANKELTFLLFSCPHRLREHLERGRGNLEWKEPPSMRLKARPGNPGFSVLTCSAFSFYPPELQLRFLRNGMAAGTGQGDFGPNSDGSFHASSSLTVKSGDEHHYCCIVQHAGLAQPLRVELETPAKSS
T1 chain 2: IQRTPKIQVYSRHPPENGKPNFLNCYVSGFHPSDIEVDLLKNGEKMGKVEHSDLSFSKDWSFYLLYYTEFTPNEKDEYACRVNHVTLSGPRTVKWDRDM


Legend:
Cyno FcRn = target: T1, Cyno FcRn; experiment: SPR (Biacore); pH 6.0
human complement C5 [1] = target: T2, human complement C5 (human, UniProt P01031 19-673; P01031 678-1676); experiment: competition ELISA; pH 7.4
human complement C5 [2] = target: T2, human complement C5; experiment: competition ELISA; pH 6.0

| Ka (Cyno FcRn) [M⁻¹] | EC50 (human complement C5 [1]) | EC50 (human complement C5 [2]) [µg/mL] | Binder |
| --- | --- | --- | --- |
| 7.13e+07 |  |  | anti-C5 mAb FMEH-IgG4PLA (antibody) heavy: not shown light: DIQLTQSPSFLSASVGDRVTITCRTSKSISKHLAWYQQKPGKAPKLLIYSGSTLQSGVPSRFSGSGSGTEFTLTISSLQPEDFATYYCQQHNEYPYTFGQGTKLEIK |
|  | 2.08 µg/mL and 1.62 µg/mL and 2.33 µg/mL |  | parental mAb H1-8/L1-9 ScFV (scFv) MDWTWVFLFLLSVTAGVHSQVQLVQSGAEVKKPGASVKVSCKASGYTITDYHLDWVRQAPGQGLEWMGDISPNYGYTIYNQKFKDRVTMTTDTSTSTAYMELRSLRSDDTAVYYCARRDIRYSGNSYKWYFDVWGQGTMVTVSSMEAPAQLLFLLLLWLPDTTGDIQLTQSPSFLSASVGDRVTITCRTSKSISKHLAWYQQKPGKAPKLLIYSGSTLQSGVPSRFSGSGSGTEFTLTISSLQPEDFATYYCQQHNEYPYTFGQGTKLEIK |
|  | 0.404 µg/mL | 4.97 | scFV mutant clone 14C6 from mAb 1819 affinity maturation (T to H mutation in position 9 of VH CDR2) (scFv) MDWTWVFLFLLSVTAGVHSQVQLVQSGAEVKKPGASVKVSCKASGYTITDYHLDWVRQAPGQGLEWMGDISPNYGYTIYNQKFKDRVTMTTDTSTSTAYMELRSLRSDDTAVYYCARRDIRYSGNSYKWYFDVWGQGTMVTVSSMEAPAQLLFLLLLWLPDTTGDIQLTQSPSFLSASVGDRVTITCRTSKSISKHLAWYQQKPGKAPKLLIYSGSTLQSGVPSRFSGSGSGTEFTLTISSLQPEDFATYYCQQHNEYPYTFGQGTKLEIK |
